{"source": "patent US20030170760A1", "biological_target": "T1, Ste2 (yeast) (UniProt D6VTK4)", "T1 sequence (looked up)": "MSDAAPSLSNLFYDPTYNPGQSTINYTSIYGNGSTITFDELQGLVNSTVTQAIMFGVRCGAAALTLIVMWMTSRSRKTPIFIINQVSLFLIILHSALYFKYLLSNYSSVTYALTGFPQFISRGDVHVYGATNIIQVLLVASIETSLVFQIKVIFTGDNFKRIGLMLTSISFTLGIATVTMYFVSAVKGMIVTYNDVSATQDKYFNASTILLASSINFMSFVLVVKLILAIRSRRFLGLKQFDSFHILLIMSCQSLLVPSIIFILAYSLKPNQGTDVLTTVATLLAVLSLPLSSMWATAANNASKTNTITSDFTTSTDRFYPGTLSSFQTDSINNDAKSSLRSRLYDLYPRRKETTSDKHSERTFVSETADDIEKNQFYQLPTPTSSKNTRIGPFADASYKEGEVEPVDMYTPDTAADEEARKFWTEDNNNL", "assay": "cell-based or functional assay", "data": [{"substance": "α-factor (from UniProt P01149 90-102) (peptide)", "values": [{"measurement": "Maximum Fold Induction, lacZ assay, Fus1p-lacZ reporter, ligand incubation 1 hr, Gα GPA1", "value": 22, "unit": "fold"}, {"measurement": "Maximum Fold Induction, lacZ assay, Fus1p-lacZ reporter, ligand incubation 2 hrs, Gα GPA1", "value": 123, "unit": "fold"}, {"measurement": "Maximum Fold Induction, lacZ assay, Fus1p-lacZ reporter, ligand incubation 3 hrs, Gα GPA1", "value": 218, "unit": "fold"}, {"measurement": "Maximum Fold Induction, lacZ assay, LBF system (p8op-lacZ reporter), ligand incubation 1 hr, Gα GPA1", "value": 29, "unit": "fold"}, {"measurement": "Maximum Fold Induction, lacZ assay, LBF system (p8op-lacZ reporter), ligand incubation 2 hrs, Gα GPA1", "value": 63, "unit": "fold"}, {"measurement": "Maximum Fold Induction, lacZ assay, LBF system (p8op-lacZ reporter), ligand incubation 3 hrs, Gα GPA1", "value": 36, "unit": "fold"}]}]}
